For 3 molecules, Kd results are on record in PMC12098869, “An mRNA-display derived cyclic peptide scaffold reveals the substrate binding interactions of an N-terminal cysteine oxidase” (Nature Communications, 2025).

Common to all, as to conditions: both partners purified
Experiment [1] addresses T1, ADO-C220A, biotinylated (pQE80L-Navi-ADO) (human, UniProt Q96SZ5 1-270, C220A, biotin on the Avi tag).
T1 construct: Tag as in Dm1; source: E. coli Rosetta2(DE3), purified (Ni-NTA, SEC); not shown: Avi tag, N-terminal, kept; His6, N-terminal, kept
T1 sequence (looked up): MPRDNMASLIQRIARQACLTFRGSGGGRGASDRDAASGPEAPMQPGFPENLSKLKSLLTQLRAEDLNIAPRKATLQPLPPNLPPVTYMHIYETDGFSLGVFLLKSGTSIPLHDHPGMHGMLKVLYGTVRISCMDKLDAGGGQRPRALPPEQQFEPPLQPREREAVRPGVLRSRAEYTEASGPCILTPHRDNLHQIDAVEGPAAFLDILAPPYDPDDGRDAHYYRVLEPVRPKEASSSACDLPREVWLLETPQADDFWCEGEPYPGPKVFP
Put plainly: SPR; multi-cycle, equilibrium steady state affinity 1:1 binding model; biotinylated ADO or variant immobilised on a Biotin CAP chip (~2500-3000 RU), peptide injected; 4 °C; 20 mM HEPES pH 7.5, 500 mM NaCl, 10 mM DTT, 0.1% (v/v) tween-20; 50 μL/minute. Summed up:
(§1)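 Biotinylated full-length human ADO (wild type or engineered forms) was made in E. coli with a His tag, then purified by nickel affinity and gel filtration. It was captured on a Biotin CAP chip at about 2500–3000 RU in a Biacore T200, and peptides were flowed over it. The run was at 4 °C in HEPES pH 7.5 buffer with 500 mM NaCl, DTT and tween-20, at 50 μL/minute. Kd came from a 1:1 steady-state fit of multi-cycle equilibrium responses.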
In general terms: In SPR one partner is held on a chip, and binding of the other changes the refractive index at the surface.

In experiment [2] the target is T2, ADO-F101A, biotinylated (pQE80L-Navi-ADO) (human, UniProt Q96SZ5 1-270, F101A, biotin on the Avi tag).
T2 construct: Tag as in Dm1; source: E. coli Rosetta2(DE3), purified (Ni-NTA, SEC); not shown: Avi tag, N-terminal, kept; His6, N-terminal, kept
T2 sequence (looked up): T1 sequence (looked up) with F101A, A220C
Described as above. Summed up: as §1

In experiment [3] the target is T3, ADO-Y212A, biotinylated (pQE80L-Navi-ADO) (human, UniProt Q96SZ5 1-270, Y212A, biotin on the Avi tag).
T3 construct: Tag as in Dm1; source: E. coli Rosetta2(DE3), purified (Ni-NTA, SEC); not shown: Avi tag, N-terminal, kept; His6, N-terminal, kept
T3 sequence (looked up): T1 sequence (looked up) with Y212A, A220C
The experiment is described as above. Summed up: as §1

Experiment [4] has as its target T4, ADO-F256A, N-terminally His-tagged and biotinylated (human, UniProt Q96SZ5 1-270, F256A, biotin (biotinylated during expression)).
T4 construct: 2-aminoethanethiol dioxygenase (ADO), human, UniProt Q96SZ5, full length, site-directed mutant; source: E. coli Rosetta2(DE3), purified (Ni-NTA, SEC); not shown: biotinylation tag (from the vector pQE80L-Navi), N-terminal, kept
T4 sequence (looked up): T1 sequence (looked up) with A220C, F256A
Put plainly: SPR; biotinylated ADO or ADO mutant immobilised on a Biotin CAP chip (~2500-3000 RU), substrate peptide injected; Biacore T200, 4 °C; 20 mM HEPES pH 7.5, 500 mM NaCl, 10 mM DTT, 0.1% tween-20; 50 µL/minute; multi-cycle or single-cycle mode not given; each cell is one of three independent measurements.

Experiment [5] concerns the target T5, ADO-Y212A, N-terminally His-tagged and biotinylated (human, UniProt Q96SZ5 1-270, Y212A, biotin (biotinylated during expression)).
T5 construct: 2-aminoethanethiol dioxygenase (ADO), human, UniProt Q96SZ5, full length, site-directed mutant; source: E. coli Rosetta2(DE3), purified (Ni-NTA, SEC); not shown: biotinylation tag (from the vector pQE80L-Navi), N-terminal, kept
T5 sequence (looked up): T1 sequence (looked up) with Y212A, A220C
The description is as above.

Substitutions are numbered along the chain they refer to. “And” between values parts separate entries of the source, which are not always exact repeats. Equal values may be shown once.

B1: RGS5_(2-15), synthetic peptide corresponding to the methionine excised N-terminus of RGS5, residues 2 to 15 (peptide, UniProt O15539 2-15, looked up)
peptide: CKGLAALPHSCLER
notes: Regulator of G-protein signalling 5 (RGS5), residues 2 to 15, N-terminal Cys; also called RGS5 peptide; source: synthetic peptide
For B1, the Kd (commonly the concentration at which binding is half-saturated) came out at 1.1 µM in experiment [1], 47 µM in experiment [2] and 72 µM in experiment [3].

B2: IL32(2-15), synthetic peptide corresponding to the methionine excised N-terminus of IL32, residues 2-15 (peptide, UniProt P24001 2-15, looked up)
peptide: CFPKVLSDDMKKLK
notes: interleukin 32 (IL32), residues 2-15 (N-terminal Cys exposed); also called 14-mer IL32; source: synthetic peptide
As to B2, the Kd in experiment [4] is 0.751 µM and 0.9 µM and 0.973 µM; in experiment [5] it was 34 µM and 24.7 µM.

B3: IL32_(2-15), synthetic peptide corresponding to the methionine excised N-terminus of IL32, residues 2-15 (peptide, UniProt P24001 2-15, looked up)
peptide: CFPKVLSDDMKKLK
notes: Interleukin 32 (IL32), residues 2-15, N-terminal Cys; also called IL32 peptide; source: synthetic peptide
In the case of B3, the Kd in experiment [1] was determined as 1.3 µM; in experiment [2], 37 µM; in experiment [3], 29 µM.
